# T1: FLRT3-LRR R117T (mouse, UniProt Q8BGT1 29-386, R117T, additional N-linked glycosylation at Asn115)
# T1 sequence (looked up): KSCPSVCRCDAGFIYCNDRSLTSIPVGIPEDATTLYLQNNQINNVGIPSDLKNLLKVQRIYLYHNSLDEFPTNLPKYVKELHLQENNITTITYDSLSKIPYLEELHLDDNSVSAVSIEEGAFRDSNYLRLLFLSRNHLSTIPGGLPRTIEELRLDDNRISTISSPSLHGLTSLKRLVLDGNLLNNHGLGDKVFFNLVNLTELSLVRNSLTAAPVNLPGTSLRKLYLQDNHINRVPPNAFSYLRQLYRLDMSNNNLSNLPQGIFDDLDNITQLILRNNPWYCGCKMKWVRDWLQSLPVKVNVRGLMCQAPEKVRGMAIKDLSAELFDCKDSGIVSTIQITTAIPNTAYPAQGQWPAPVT
# T2: FLRT3-LRR F160A (mouse, UniProt Q8BGT1 29-386, F160A)
# T2 sequence (looked up): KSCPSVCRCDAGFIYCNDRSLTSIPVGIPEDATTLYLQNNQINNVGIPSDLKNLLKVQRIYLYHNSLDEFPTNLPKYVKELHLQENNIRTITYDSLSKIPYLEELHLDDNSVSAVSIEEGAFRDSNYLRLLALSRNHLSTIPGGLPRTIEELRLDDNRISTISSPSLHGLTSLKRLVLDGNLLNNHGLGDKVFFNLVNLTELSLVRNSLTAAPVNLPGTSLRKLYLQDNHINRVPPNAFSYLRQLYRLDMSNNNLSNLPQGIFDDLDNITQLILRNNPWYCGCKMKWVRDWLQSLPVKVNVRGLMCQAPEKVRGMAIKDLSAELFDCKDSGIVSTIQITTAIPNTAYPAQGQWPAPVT
# Legend:
# AUC = target: the molecule itself; experiment: AUC
# FLRT3-LRR R117T = target: T1, FLRT3-LRR R117T; experiment: ITC
# FLRT3-LRR F160A = target: T2, FLRT3-LRR F160A; experiment: ITC
Kd (FLRT3-LRR R117T) [nM],Kd (FLRT3-LRR F160A) [nM],Binder,Kd (AUC) [nM],stoichiometry N (AUC)
–,–,"FLRT3-LRR (leucine-rich repeat domain of mouse FLRT3, amino acids 29-386) (domain or fragment, UniProt Q8BGT1 29-386, looked up, N-linked glycosylation (three predicted sites; one N-Acetyl-glucosamine modelled on Asn226)) KSCPSVCRCDAGFIYCNDRSLTSIPVGIPEDATTLYLQNNQINNVGIPSDLKNLLKVQRIYLYHNSLDEFPTNLPKYVKELHLQENNIRTITYDSLSKIPYLEELHLDDNSVSAVSIEEGAFRDSNYLRLLFLSRNHLSTIPGGLPRTIEELRLDDNRISTISSPSLHGLTSLKRLVLDGNLLNNHGLGDKVFFNLVNLTELSLVRNSLTAAPVNLPGTSLRKLYLQDNHINRVPPNAFSYLRQLYRLDMSNNNLSNLPQGIFDDLDNITQLILRNNPWYCGCKMKWVRDWLQSLPVKVNVRGLMCQAPEKVRGMAIKDLSAELFDCKDSGIVSTIQITTAIPNTAYPAQGQWPAPVT",43300,2
27,1000,"LPHN3-OLF (olfactomedin domain of mouse latrophilin 3, amino acids 199-495) (domain or fragment, UniProt Q80TS3 199-495, looked up) KVFLCPGLLKGVYQSEHLFESDHQSGAWCKDPLQASDKIYYMPWTPYRTDTLTEYSSKDDFIAGRPTTTYKLPHRVDGTGFVVYDGALFFNKERTRNIVKFDLRTRIKSGEAIIANANYHDTSPYRWGGKSDIDLAVDENGLWVIYATEQNNGKIVISQLNPYTLRIEGTWDTAYDKRSASNAFMICGILYVVKSVYEDDDNEATGNKIDYIYNTDQSKDSLVDVPFPNSYQYIAAVDYNPRDNLLYVWNNYHVVKYSLDFGPLDSRSGPVHHGQVSYISPPIHLDSELERPPVRGI",–,–

# Source: article PMC4930246 (Structure (London, England : 1993), 2015)
